Three substances from article PMC7948962, “Wzb of Vibrio vulnificus represents a new group of low-molecular-weight protein tyrosine phosphatases with a unique insertion in the W-loop” (The Journal of Biological Chemistry, 2021) can be followed below.

The test system of the data set is O=[N+]([O-])c1ccc(OP(=O)(O)O)cc1. As to the kind of experiment: p-nitrophenol release, A405, initial velocity, Michaelis-Menten fit. Type of data set: biochemical, Escherichia coli. Conditions: 10 mM HEPES pH 7.5, 150 mM NaCl, 20 °C, 200 nM enzyme.

Text: p-nitrophenol release, A405, initial velocity, Michaelis-Menten fit on EcWzb

In general, Km refers to the substrate concentration at which the rate is half of its maximum. One may read the kcat as the number of substrate molecules converted per active site and unit of time at saturation. What is called kcat/Km is the turnover number divided by the Michaelis constant. In the case of EcWzb (Escherichia coli K-12), the Km worked out at 3480 ± 240 µM, the kcat amounted to 2.84 ± 0.1 s⁻¹ and the kcat/Km was 820 M⁻¹ s⁻¹.
For “EcWzb (Escherichia coli K-12; INS39AAAA)”, where the note is “A39_L40insAAAA”, the Km turned out to be 2050 ± 100 µM, the kcat amounted to 6.09 ± 0.09 s⁻¹ and the kcat/Km was 2970 M⁻¹ s⁻¹.
Consider “EcWzb (Escherichia coli K-12; INS39EKSR)”, for which, where the note is “A39_L40insEKSR”, the Km amounted to 2530 ± 30 µM, the kcat came out at 9.34 ± 0.1 s⁻¹ and the kcat/Km turned out to be 3690 M⁻¹ s⁻¹.
